Experimental data reported in patent publication US20260242485A1 (LEPU BIOPHARMA, published 2026).

Columns and labels:
[1] = molecular target: T1, human CD16A-158F expressed on CHO-K1 cells (human, UniProt P08637 17-254); assay: flow cytometry, CHO-K1-hCD16A-158F cells, Alexa Fluor 647 anti-human IgG Fc, geometric mean
T1 construct: whole, on cells
Experimental: (§1) In order to evaluate the binding activity of the chimeric mAbs to human CD16A expressed on cells, cell-based binding assay was employed as followed. […] The antibody dilutions were incubated with 1×10⁵ indicated cells in the 96-well microplate for one hour at 4° C. The antibodies binding to the antigen on the cell surface were detected with PE fluorophore-conjugated anti-human IgG Fc secondary antibodies (ThermoFisher scientific, Cat. No. 12-4998-82) at a dilution rate of 1:1000. Cells were analyzed by flow cytometer LSRFortessa Cell Analyzer (BD Biosciences). Data were analyzed with Flowjo 10.0 software. The graph and statistics analysis were generated with four-parameter nonlinear regression curve fit in Graphpad Prism 9 software.
(§2) The assay was performed following the protocol described above. The antibodies binding to the antigen on the cell surface were detected with Alexa Fluor® 647 AffiniPure™ F(ab′)₂ fragment goat anti-human IgG Fcγ fragment specific secondary antibody (Jackson Immuno Research, Cat. No. 109-606-098) at a dilution rate of 1:2000.

[2] = molecular target: T2, human CD16A-158V expressed on CHO-K1 cells (human, UniProt P08637 17-254); assay: flow cytometry, CHO-K1-hCD16A-158V cells, geometric mean
T2 construct: whole, on cells; also called hCD16A-158V; CHO-K1-hCD16A-158V
T2 sequence (P08637 17-254 F176V): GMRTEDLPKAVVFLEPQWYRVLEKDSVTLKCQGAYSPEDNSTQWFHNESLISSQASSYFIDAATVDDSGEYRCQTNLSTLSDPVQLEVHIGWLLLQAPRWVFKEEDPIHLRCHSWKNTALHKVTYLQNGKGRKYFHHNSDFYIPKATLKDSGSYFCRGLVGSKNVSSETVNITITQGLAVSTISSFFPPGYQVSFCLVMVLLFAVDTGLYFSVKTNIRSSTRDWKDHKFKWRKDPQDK
Experimental: as §1
(§3) The assay was performed following the protocol described above.

[3] = molecular target: T3, cynomolgus CD16 expressed on CHO-K1 cells (cynomolgus, UniProt Q8SPW2 17-254); assay: flow cytometry, CHO-K1-cyno CD16 cells, geometric mean
T3 construct: whole, on cells; also called cyno CD16; CHO-K1-cynoCD16
T3 sequence (Q8SPW2 17-254): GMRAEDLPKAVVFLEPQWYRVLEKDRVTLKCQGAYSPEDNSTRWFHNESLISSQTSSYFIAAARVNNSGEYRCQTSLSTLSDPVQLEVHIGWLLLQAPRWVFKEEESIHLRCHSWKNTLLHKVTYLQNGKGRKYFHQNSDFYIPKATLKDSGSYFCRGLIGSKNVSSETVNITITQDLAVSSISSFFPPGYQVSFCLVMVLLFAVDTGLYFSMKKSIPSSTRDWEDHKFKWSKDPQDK
Experimental: as §1, §3

[4] = molecular target: T1, human CD16A-158F expressed on CHO-K1 …; assay: flow cytometry, CHO-K1-hCD16A-158F cells, geometric mean
Experimental: as §1, §3

[5] = molecular target: T3, cynomolgus CD16 expressed on CHO-K1 …; assay: flow cytometry, CHO-K1-cyno CD16 cells, Alexa Fluor 647 anti-human IgG Fc, geometric mean
Experimental: as §1, §2

[6] = molecular target: T2, human CD16A-158V expressed on CHO-K1 …; assay: flow cytometry, CHO-K1-hCD16A-158V cells, Alexa Fluor 647 anti-human IgG Fc, geometric mean
Experimental: as §1, §2

[7] = molecular target: T4, human GPC3 on HepG2 cells (human, UniProt P51654 25-554); assay: flow cytometry, HepG2 cells (GPC3 positive), geometric mean
T4 construct: whole, on cells; also called GPC3-positive HepG2 cells
T4 sequence (P51654 25-554 limits assumed): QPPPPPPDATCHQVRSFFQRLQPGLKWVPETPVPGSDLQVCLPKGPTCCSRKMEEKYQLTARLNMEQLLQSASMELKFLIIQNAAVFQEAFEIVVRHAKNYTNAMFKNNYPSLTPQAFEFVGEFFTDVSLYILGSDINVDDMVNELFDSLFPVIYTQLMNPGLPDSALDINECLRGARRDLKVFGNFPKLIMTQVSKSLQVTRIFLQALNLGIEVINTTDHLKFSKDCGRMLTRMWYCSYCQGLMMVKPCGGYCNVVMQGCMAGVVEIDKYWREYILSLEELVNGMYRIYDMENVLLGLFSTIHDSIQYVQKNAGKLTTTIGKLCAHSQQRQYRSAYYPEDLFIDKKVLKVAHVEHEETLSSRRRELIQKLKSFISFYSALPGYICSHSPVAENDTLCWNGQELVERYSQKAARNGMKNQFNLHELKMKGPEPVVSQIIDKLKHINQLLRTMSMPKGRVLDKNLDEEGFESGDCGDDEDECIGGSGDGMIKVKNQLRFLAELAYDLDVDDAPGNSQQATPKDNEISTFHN

[8] = molecular target: T1, human CD16A-158F expressed on CHO-K1 …; assay: flow cytometry, CHO-K1-hCD16A-158F cells, geometric mean; remark: listed apart in the source
Source text: (§4) The purpose of the assay was to evaluate the binding of BsAb to each of the hFcγRs.

[9] = molecular target: T2, human CD16A-158V expressed on CHO-K1 …; assay: flow cytometry, CHO-K1-hCD16A-158V cells, geometric mean; remark: listed apart in the source
Source text: as §4

[10] = molecular target: T1, human CD16A-158F expressed on CHO-K1 …; assay: flow cytometry, CHO-K1-hCD16A-158F cells, geometric mean; remark: listed apart in the source

T1 sequence (P08637 17-254): as the sequence (P08637 17-254 F176V) above, with V160F counted along it

B1: 45H6E8-z21 (antibody, human IgG1, V domains shown)
VH: QVQLVQSGAEVKKPGASVKVSCKVSGYTLTDYYMQWVRQAPGKGLEWMGWIDPENGDTEYAPKFQGRVTMTADTSTDTAYMELSSLRSEDTAVYYCTTGGNYVDWGQGTTVTVSS
VL: DIQMTQSPSFLSASVGDRVTITCKASQNVGTAVAWYQQKPGKAPKLLIYSASNRYTGVPDRFSGSGSGTDFTLTISSLQPEDFATYFCQQYSSYPLLTFGQGTRLEIK
notes: Human IgG1 LALAPG constant region; also called HU-VH1-8 / HU-VL1-3
For B1, the “EC50 (read off the curve)” value [1] was about 0.4 nM, the “EC50 (read off the curve)” value [2] was about 0.4 nM and the “EC50 (read off the curve)” value [3] was about 0.7 nM. For the same binder, the “EC50 (read off the curve)” value [4] was about 0.4 nM, the “EC50 (read off the curve)” value [5] was about 1 nM and the “EC50 (read off the curve)” value [6] was about 0.4 nM.

B2: 45H6E8-z21p1 (antibody, V domains shown)
VH: QVQLVQSGAEVKKPGASVKVSCKVSGYTLTDYYMQWVRQAPGKGLEWMGWIDPEQGDTEYAPKFQGRVTMTADTSTDTAYMELSSLRSEDTAVYYCTTGGNYVDWGQGTTVTVSS
VL: DIQMTQSPSFLSASVGDRVTITCKASQNVGTAVAWYQQKPGKAPKLLIYSASNRYTGVPDRFSGSGSGTDFTLTISSLQPEDFATYFCQQYSSYPLLTFGQGTRLEIK
notes: PTM-removed version of z21
B2: no binding (tested: 100 nM) [7].

B3: CCR8-hIgG1 mAb (antibody)
VH: not shown
VL: DIVMTQSPLSLPVTPGEPASISCRSSKSLLHSNANTYLYWYLQKPGQSPQLLIYRMSNLASGVPDRFSGSGSGTAFTLKISRVEAEDVGVYYCMQHLEYPFTFGGGTKLEIKRTVAAPSVFIFPPSDEQLKSGTASVVCLLNNFYPREAKVQWKVDNALQSGNSQESVTEQDSKDSTYSLSSTLTLSKADYEKHKVYACEVTHQGLSSPVTKSFNRGEC
notes: Wildtype human IgG1; also called anti-hCCR8 monoclonal antibody with wildtype Fc hIgG1
B3 showed an EC50 [8] of 20 nM and an EC50 [9] of 5.2 nM.

B4: CCR8-45H6E8-hIgG1LALAPG (bispecific antibody)
heavy: EVQLVESGGGLVQPGGSLRLSCAASGFSFNTYVMNWVRQAPGKGLEWVARIRTKSNNYATFYVDSVKDRFTISRDDSKNSLYLQMNSLKTEDTAVYYCVSGTITRLGAGLDYWGQGTLVTVSSASTKGPSVFPLAPSSKSTSGGTAALGCLVKDYFPEPVTVSWNSGALTSGVHTFPAVLQSSGLYSLSSVVTVPSSSLGTQTYICNVNHKPSNTKVDKKVEPKSCDKTHTCPPCPAPEAAGGPSVFLFPPKPKDTLMISRTPEVTCVVVDVSHEDPEVKFNWYVDGVEVHNAKTKPREEQYNSTYRVVSVLTVLHQDWLNGKEYKCKVSNKALGAPIEKTISKAKGQPREPQVYTLPPSREEMTKNQVSLTCLVKGFYPSDIAVEWESNGQPENNYKTTPPVLDSDGSFFLYSKLTVDKSRWQQGNVFSCSVMHEALHNHYTQKSLSLSPGKGGGGSGGGGSGGGGSEVQLQQSGAELVRSGASVKLSCTASGFNIKDYYMQWVKQRPEQGLEWIGWIDPENGDTEYAPKFQGKATMTADTSSNTAYLQLSSLTSEDTAVYYCTTGGNYVDWGQGTTLTVSSGGGGSGGGGSGGGGSDIVMTQSQKFMSTSVGDRVSITCKASQNVGTAVAWYQQKPGQSPKLLIYSASNRYTGVPDRFTGSGSGTDFTLTISNMQSEDLADYFCQQYSSYPLLTFGAGTNLELK
light: DIVMTQSPLSLPVTPGEPASISCRSSKSLLHSNANTYLYWYLQKPGQSPQLLIYRMSNLASGVPDRFSGSGSGTAFTLKISRVEAEDVGVYYCMQHLEYPFTFGGGTKLEIKRTVAAPSVFIFPPSDEQLKSGTASVVCLLNNFYPREAKVQWKVDNALQSGNSQESVTEQDSKDSTYSLSSTLTLSKADYEKHKVYACEVTHQGLSSPVTKSFNRGEC
notes: to be checked; also called CCR8-45H6E8-hIgG1LALAPG BsAb; CCR8-45H6E8 LALAPG BsAb
With B4 the EC50 [8] was 0.29 nM and the EC50 [9] was 0.57 nM.

B5: GPC3-hIgG1DE (antibody)
chain 1: not shown
chain 2: DIVMTQTPLSLSVTPGQPASISCRSSQSLVHSNGNTYLQWYLQKPGQSPQLLIYKVSNRFSGVPDRFSGSGSGTDFTLKISRVEAEDVGVYYCFQSIHVPYTFGGGTKLEIKRTVAAPSVFIFPPSDEQLKSGTASVVCLLNNFYPREAKVQWKVDNALQSGNSQESVTEQDSKDSTYSLSSTLTLSKADYEKHKVYACEVTHQGLSSPVTKSFNRGEC
B5 was tested, and the “EC50 (read off the curve)” value [7] was about 0.3 nM.

B6: GPC3-hIgG1 (antibody)
heavy: not shown
light: DIVMTQTPLSLSVTPGQPASISCRSSQSLVHSNGNTYLQWYLQKPGQSPQLLIYKVSNRFSGVPDRFSGSGSGTDFTLKISRVEAEDVGVYYCFQSIHVPYTFGGGTKLEIKRTVAAPSVFIFPPSDEQLKSGTASVVCLLNNFYPREAKVQWKVDNALQSGNSQESVTEQDSKDSTYSLSSTLTLSKADYEKHKVYACEVTHQGLSSPVTKSFNRGEC
notes: also called GPC3-hIgG1 mAb with wild-type Fc region
In the case of B6, the binding result [10] is reported as “no binding (tested: 100 nM)” and the “EC50 (read off the curve)” value [7] is reported as about 0.3 nM.
